Reference: publication PMC9597168, “ATP-dependent polymerization dynamics of bacterial actin proteins involved in Spiroplasma swimming” (Open Biology, 2022)
Where a chain is given by its changes, count along the chain named. Names and notes keep the numbering of the source.

Legend:
SpeMreB5 = molecular target: T1, SpeMreB5 (Spiroplasma eriocheiris, UniProt A0A0H3XIQ3); assay: Pi release assay (MESG coupled, A360); type: biochemical; conditions: 2 mM ATP, 2 mM MgCl2, pH 7.5, 100 mM KCl, about 25 °C
T1 construct: gene mreB5; full length, 6xHis fusion, E. coli expressed, purified as monomer
T1 sequence (A0A0H3XIQ3 1-350): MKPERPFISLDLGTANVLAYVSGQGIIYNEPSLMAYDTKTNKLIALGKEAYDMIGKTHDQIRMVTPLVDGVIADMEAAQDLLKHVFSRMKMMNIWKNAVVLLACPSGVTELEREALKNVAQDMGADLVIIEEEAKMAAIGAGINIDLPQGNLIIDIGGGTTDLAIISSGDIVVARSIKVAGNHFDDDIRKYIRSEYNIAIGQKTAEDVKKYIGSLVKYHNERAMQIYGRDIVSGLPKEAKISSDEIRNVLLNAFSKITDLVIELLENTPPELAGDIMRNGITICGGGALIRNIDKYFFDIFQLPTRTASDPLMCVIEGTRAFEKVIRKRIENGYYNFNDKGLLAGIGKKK

[1] = molecular target: SpeMreB5 D162S (Spiroplasma eriocheiris); assay: sedimentation assay (ultracentrifugation of polymers, SDS-PAGE of pellet and supernatant); buffer S (20 mM Tris-HCl pH 8.0, 1 M NaCl, 200 mM L-arginine-HCl pH 8.0, 5 mM DTT, 2 mM MgCl2, 2 mM ATP), 1 h, 436 000 x g for 120 min at 23°C; bulk critical concentration = x-intercept of the linear fit of pellet against total concentration
[2] = molecular target: SpeMreB5 T160A (Spiroplasma eriocheiris); assay: as above
[3] = molecular target: SpeMreB5 T160K (Spiroplasma eriocheiris); assay: as above
[4] = molecular target: Spiroplasma eriocheiris MreB3 wild-type (Spiroplasma eriocheiris); assay: as above
[5] = molecular target: Spiroplasma eriocheiris MreB5 wild-type (Spiroplasma eriocheiris); assay: as above
[6] = molecular target: Spiroplasma eriocheiris MreB5 wild-type (Spiroplasma eriocheiris); assay: sedimentation assay (ultracentrifugation of polymers, SDS-PAGE of pellet and supernatant); buffer S with Mg-ADP instead of Mg-ATP; bulk critical concentration = x-intercept of the linear fit
[7] = molecular target: Spiroplasma eriocheiris MreB5 wild-type (Spiroplasma eriocheiris); assay: sedimentation assay (ultracentrifugation of polymers, SDS-PAGE of pellet and supernatant); buffer S with Mg-AMPPNP instead of Mg-ATP; bulk critical concentration = x-intercept of the linear fit
[8] = molecular target: the molecule itself; assay: negative-staining electron microscopy; polymerized 3 h at room temperature in standard buffer (20 mM Tris-HCl pH 7.5, 100 mM KCl, 5 mM DTT) with 2 mM MgCl2 and 2 mM ATP; 10 µM SpeMreB3, 5 µM SpeMreB5, diluted to 3 µM before the grid
[9] = molecular target: the molecule itself; assay: sedimentation assay (ultracentrifugation of polymers, SDS-PAGE of pellet and supernatant); buffer S (20 mM Tris-HCl pH 8.0, 1 M NaCl, 200 mM L-arginine-HCl pH 8.0, 5 mM DTT, 2 mM MgCl2, 2 mM ATP), 1 h, 436 000 x g for 120 min at 23°C; bulk critical concentration = x-intercept of the linear fit of pellet against total concentration

Nc1ncnc2c1ncn2[C@@H]1O[C@H](COP(=O)(O)OP(=O)(O)OP(=O)(O)O)[C@@H](O)[C@H]1O [ATP]
Pi release assay (MESG coupled, A360) (SpeMreB5): SpeMreB5 hydrolysed ATP and released Pi over time

SpeMreB5 D162S (from UniProt A0A0H3XIQ3 1-350) (natural protein)
critical concentration (CC) [1]: 0.07 µM

SpeMreB5 T160A (from UniProt A0A0H3XIQ3 1-350) (natural protein)
critical concentration (CC) [2]: 0.15 µM

SpeMreB5 T160K (from UniProt A0A0H3XIQ3 1-350) (natural protein)
critical concentration (CC) [3]: 0 µM

Spiroplasma eriocheiris MreB3 wild-type (from UniProt A0A0H3XJK5 1-352) (natural protein)
critical concentration (CC) [4]: 2.8 µM

Spiroplasma eriocheiris MreB5 wild-type (from UniProt A0A0H3XIQ3 1-350) (natural protein)
critical concentration (CC) [5]: 0.14 µM | critical concentration (CC) [6]: 0.39 µM | critical concentration (CC) [7]: 0.29 µM

B1: SpeMreB3 S176D (natural protein)
chain: MTITDVLKNTFNISPKPPRKFIAIDLGTTNSIAYIGGRGIIYNEASVMAYETGTKKLVALGEDARKLIGKTHDKIEIYTPLRNGAITDLRIAEEFIQHIGNRAKVQDVWKGSIVLIACPKSVTELERRAMVEMCKHLGADLVQVEEDTLMAALGAGANIFAPKGTFILDIGGGKTDAGIISAGGIVVSKSIKIAGNYIDEEILKYIRAKHTISIGVVTAEQIKKQIGSLYKGKETKKMVIFGRDVVTGMPKETEILDSEIRKLLISIFSSITQLVTDILESTPAELAGDAVMNGLLVSGGCAQISGLKEFLESYFQIPVKIAKNPQTAVIDGCIAYEKEIRDRLIEENKKNK
binding result [8]: binds

B2: SpeMreB3 K174T (natural protein)
chain: B1 chain with K174T, D176S
critical concentration (CC) [9]: 2.2 µM

B3: SpeMreB3 K174T/S176D (natural protein)
chain: B1 chain with K174T
critical concentration (CC) [9]: 2.15 µM

B4: SpeMreB3 D147E (natural protein)
chain: B1 chain with D147E, D176S
critical concentration (CC) [9]: 1.26 µM
